The text below walks through data of US20220009989A1.

pKi: −log10 of the molar value.

Assay [1] addresses Biotinylated PCSK9 (UniProt Q8NBP7). Description: PCSK9-LDL-R competitive ELISA (biotinylated PCSK9, coated rhLDL-R), Ki from IC50. Background: In an ELISA, binding on a coated surface is turned into a signal by an enzyme label.
The target in assay [2] is PCSK9 (10 ug/mL; in-house production) (UniProt Q8NBP7). The assay is described as follows: cell-based or functional assay.
Assay [3] addresses solubilised human IR-A (human) (UniProt P06213). Description: SPA competition vs [125I-A14Y]-human insulin, solubilised hIR-A, 1.5% HSA, relative to human insulin.
Assay [4] has the same target. Description: SPA competition vs [125I-A14Y]-human insulin, solubilised hIR-A, 0% HSA, relative to human insulin.

Chain of solubilised human IR-A (human) (P06213 other isoform, or with tags, fused parts or gaps limits assumed): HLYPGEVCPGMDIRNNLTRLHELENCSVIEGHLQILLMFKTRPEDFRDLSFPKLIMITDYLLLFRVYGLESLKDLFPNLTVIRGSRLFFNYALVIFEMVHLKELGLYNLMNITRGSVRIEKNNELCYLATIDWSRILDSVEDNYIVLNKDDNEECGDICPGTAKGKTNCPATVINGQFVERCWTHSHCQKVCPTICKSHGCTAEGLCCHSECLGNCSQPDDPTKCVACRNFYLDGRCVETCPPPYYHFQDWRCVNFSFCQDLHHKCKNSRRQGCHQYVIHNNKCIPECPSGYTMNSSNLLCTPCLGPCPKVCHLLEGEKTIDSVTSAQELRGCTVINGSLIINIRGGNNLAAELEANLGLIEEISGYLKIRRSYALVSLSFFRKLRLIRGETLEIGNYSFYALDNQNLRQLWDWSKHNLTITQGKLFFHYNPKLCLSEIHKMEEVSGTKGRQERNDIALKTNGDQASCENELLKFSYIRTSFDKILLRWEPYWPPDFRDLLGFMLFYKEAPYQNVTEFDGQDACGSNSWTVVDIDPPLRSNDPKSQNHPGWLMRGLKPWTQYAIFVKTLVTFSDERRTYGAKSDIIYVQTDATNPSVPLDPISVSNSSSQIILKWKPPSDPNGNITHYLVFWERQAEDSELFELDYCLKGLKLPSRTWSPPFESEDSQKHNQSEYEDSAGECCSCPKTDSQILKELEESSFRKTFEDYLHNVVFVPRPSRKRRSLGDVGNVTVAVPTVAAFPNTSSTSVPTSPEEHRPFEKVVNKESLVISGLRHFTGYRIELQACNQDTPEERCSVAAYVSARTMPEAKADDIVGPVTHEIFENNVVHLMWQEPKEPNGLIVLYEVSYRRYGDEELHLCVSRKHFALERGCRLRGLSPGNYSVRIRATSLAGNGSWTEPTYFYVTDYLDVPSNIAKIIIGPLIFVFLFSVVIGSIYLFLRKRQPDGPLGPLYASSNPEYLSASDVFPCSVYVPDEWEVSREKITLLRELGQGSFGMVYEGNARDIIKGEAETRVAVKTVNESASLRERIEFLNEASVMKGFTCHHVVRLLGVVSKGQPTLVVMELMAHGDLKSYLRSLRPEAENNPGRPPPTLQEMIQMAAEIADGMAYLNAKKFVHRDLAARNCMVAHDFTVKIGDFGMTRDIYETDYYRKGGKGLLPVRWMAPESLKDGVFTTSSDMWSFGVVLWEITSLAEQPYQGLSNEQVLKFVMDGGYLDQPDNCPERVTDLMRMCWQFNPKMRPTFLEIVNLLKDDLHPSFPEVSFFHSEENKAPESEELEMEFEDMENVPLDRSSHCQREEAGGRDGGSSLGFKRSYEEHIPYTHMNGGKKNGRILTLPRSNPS

In general, pKi refers to the negative decadic logarithm of the Ki, by convention in mol/L. In assay [1], “EGF(A)(301L, 309R, 312E, 321E)-[GAQP]6-Insulin(A14E, B29K(eicosanedioyl-gGlu-2×OEG), desB30” showed a pKi of 8.76.
As for “EGF(A)(301L, 309R, 312E, 321E)-[GAQP]6-Insulin(A14E, B29K(octadecanedioyl-gGlu-2×OEG), desB30)”, the pKi in assay [1] is 8.72.
Take “EGF(A)(301L, 309R, 312E, 321E)-[GAQP]6-Insulin(A14E, B29K(octadecanedioyl-gGlu-OEG), desB30)”: the pKi in assay [1] was 8.68. The pKi values of the last two substances are within 0.2 log units of each other.
The substance “EGF(A)(301L, 309R, 312E, 321E)-[GAQP]19-Insulin(A14E, B29K(eicosanedioyl-gGlu-2×OEG), desB30)” returned an LDL uptake EC50 (nM) in HepG2 cells in assay [2] of 126 nM. Besides, the hIR-A binding affinity (% rel to HI) in assay [3] is 0.14 % rel to HI; in assay [4], 2.89 % rel to HI.
As for “EGF(A)(301L, 309R, 312E, 321E)-[GAQP]19-Insulin(A14E, B29K(octadecanedioyl-gGlu-2×OEG), desB30)”, the LDL uptake EC50 (nM) in HepG2 cells in assay [2] is 123 nM. Also, the hIR-A binding affinity (% rel to HI) in assay [3] was 0.14 % rel to HI; in assay [4], 2.99 % rel to HI. In assay [1], the pKi was 8.67.
Consider “EGF(A)(301L, 309R, 312E, 321E)-[GAQP]19-Insulin(B3E, B29K(eicosanedioyl-gGlu-2×OEG), desB30)”, for which the hIR-A binding affinity (% rel to HI) in assay [3] is 0.29 % rel to HI; in assay [4], 4.15 % rel to HI. Moreover, in assay [1], the negative logarithm of the Ki (pKi) is 8.73.
The substance “EGF(A)(301L, 309R, 312E, 321E, 328K(hexadecanedioyl-gGlu-2×OEG), 330K(hexadecanedioyl-gGlu-2×OEG)) (peptide; modification not given)” showed an LDL uptake EC50 (nM) in HepG2 cells in assay [2] of 152 nM.
Turning to “EGF(A)(301L, 309R, 312E, 321E, 328K(hexadecanedioyl-gGlu-2×OEG), 330K(hexadecanedioyl-gGlu-2×OEG)) (peptide; modification not given; biotinylated (sites not stated))”, the pKi in assay [1] was 8.72.
